One protein from FireProtDB (doi:10.1006/jmbi.2001.4521) can be followed below.

The conditions of the data set: Drosophila melanogaster, pH 6, Thermal, CD, phosphate 50 mM, Na2SO4 0.4 M, whole UniProt chain shown.

B1: Growth factor receptor-bound protein 2 wild type, Q08012 (protein)
chain: MEAIAKHDFSATADDELSFRKTQILKILNMEDDSNWYRAELDGKEGLIPSNYIEMKNHDWYYGRITRADAEKLLSNKHEGAFLIRISESSPGDFSLSVKCPDGVQHFKVLRDAQSKFFLWVVKFNSLNELVEYHRTASVSRSQDVKLRDMIPEEMLVQALYDFVPQESGELDFRRGDVITVTDRSDENWWNGEIGNRKGIFPATYVTPYHS
As to B1, the Tm was found to be 63.7 °C. Besides, the unfolding free energy (25 °C) turned out to be 1.8 kcal/mol.

In general, Tm refers to the temperature at which the thermal transition is half complete.
